Reference: patent publication US5091518

Biological target: T1, Retinoic acid receptor alpha (RAR-alpha) (UniProt P10276)
T1 sequence: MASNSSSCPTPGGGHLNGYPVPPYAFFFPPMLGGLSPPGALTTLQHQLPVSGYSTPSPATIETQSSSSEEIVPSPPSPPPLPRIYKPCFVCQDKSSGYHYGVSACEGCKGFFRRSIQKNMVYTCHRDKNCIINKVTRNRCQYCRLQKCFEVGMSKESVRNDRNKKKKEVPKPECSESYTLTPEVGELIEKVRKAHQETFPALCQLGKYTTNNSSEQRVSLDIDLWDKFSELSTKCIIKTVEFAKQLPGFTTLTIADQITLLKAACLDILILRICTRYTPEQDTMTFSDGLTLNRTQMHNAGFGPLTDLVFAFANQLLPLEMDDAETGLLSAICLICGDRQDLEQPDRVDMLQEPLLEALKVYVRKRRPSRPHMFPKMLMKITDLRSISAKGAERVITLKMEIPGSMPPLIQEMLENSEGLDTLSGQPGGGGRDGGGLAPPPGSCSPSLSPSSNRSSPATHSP
Assay: cell_activity

Row | Substance | activity (fold induction) (same as empty DMTV-LUC (2-fold)) | activity (fold induction) (CV-1 cells, 10^-6 M retinoic acid, reverse orientation 9-fold)
1 | NR oligo (45 bp located 24 bp 3' of bRE1) | 2 | 
2 | 183 bp SmaI fragment of RARb promoter |  | 10
